Assays:
[1] = target: T1, XBP-1S, the active isoform of X-box binding protein 1 (human, UniProt P17861-2 1-376); assay: cell-based or functional assay
T1 sequence (looked up): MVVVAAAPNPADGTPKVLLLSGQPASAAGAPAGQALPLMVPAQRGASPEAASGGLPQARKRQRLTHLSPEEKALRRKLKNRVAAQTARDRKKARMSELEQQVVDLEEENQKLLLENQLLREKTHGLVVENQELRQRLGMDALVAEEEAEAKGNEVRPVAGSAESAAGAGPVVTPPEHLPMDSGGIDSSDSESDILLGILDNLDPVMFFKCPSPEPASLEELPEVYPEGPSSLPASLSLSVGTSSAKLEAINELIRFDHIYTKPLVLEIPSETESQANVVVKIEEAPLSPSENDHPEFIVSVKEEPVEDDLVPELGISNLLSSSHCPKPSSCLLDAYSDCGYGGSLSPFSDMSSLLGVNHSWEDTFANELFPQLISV

[2] = target: T1, XBP-1S, the active isoform of X-box …; assay: co-IP; 293T cells co-transfected with PCAF and XBP-1S vectors with or without a GCN5 plasmid; IP with anti-XBP-1 antibody, immunoblot with anti-PCAF or anti-XBP-1; bands quantified by densitometry, PCAF normalised to precipitated XBP-1S; settings: partners not purified

B1: general control nonderepressible 5 (GCN5) (enzyme, human, UniProt Q92830 1-837, looked up)
chain: MAEPSQAPTPAPAAQPRPLQSPAPAPTPTPAPSPASAPIPTPTPAPAPAPAAAPAGSTGTGGPGVGSGGAGSGGDPARPGLSQQQRASQRKAQVRGLPRAKKLEKLGVFSACKANETCKCNGWKNPKPPTAPRMDLQQPAANLSELCRSCEHPLADHVSHLENVSEDEINRLLGMVVDVENLFMSVHKEEDTDTKQVYFYLFKLLRKCILQMTRPVVEGSLGSPPFEKPNIEQGVLNFVQYKFSHLAPRERQTMFELSKMFLLCLNYWKLETPAQFRQRSQAEDVATYKVNYTRWLCYCHVPQSCDSLPRYETTHVFGRSLLRSIFTVTRRQLLEKFRVEKDKLVPEKRTLILTHFPKFLSMLEEEIYGANSPIWESGFTMPPSEGTQLVPRPASVSAAVVPSTPIFSPSMGGGSNSSLSLDSAGAEPMPGEKRTLPENLTLEDAKRLRVMGDIPMELVNEVMLTITDPAAMLGPETSLLSANAARDETARLEERRGIIEFHVIGNSLTPKANRRVLLWLVGLQNVFSHQLPRMPKEYIARLVFDPKHKTLALIKDGRVIGGICFRMFPTQGFTEIVFCAVTSNEQVKGYGTHLMNHLKEYHIKHNILYFLTYADEYAIGYFKKQGFSKDIKVPKSRYLGYIKDYEGATLMECELNPRIPYTELSHIIKKQKEIIKKLIERKQAQIRKVYPGLSCFKEGVRQIPVESVPGIRETGWKPLGKEKGKELKDPDQLYTTLKNLLAQIKSHPSAWPFMEPVKKSEAPDYYEVIRFPIDLKTMTERLRSRYYVTRKLFVADLQRVIANCREYNPPDSEYCRCASALEKFFYFKLKEGGLIDK
notes: No tag is named for this plasmid; precipitated and detected with anti-GCN5 (ab71965); also called GCN5 WT; source: 293T, transfected, in lysate
[1]
  fold decrease in XBP-1S-mediated luciferase expression from the 5×UPRE-Luc reporter in HEK293 cells with GCN5 overexpressed: > 5 fold
[2]
  fold decrease of PCAF-XBP-1S binding with GCN5 overexpressed: 4 fold

From PMC4381594, “GCN5 inhibits XBP-1S-mediated transcription by antagonizing PCAF action” (Oncotarget, 2014)
